Laboratory results as given in the nanobody polyreactivity screen of Harvey et al. (2022).

Experiment: yeast display, Sf9 membrane polyspecificity reagent, FACS + sequencing; frameworks hold sequencing errors
Method in brief: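 Genes from sorted yeast were amplified by colony PCR, read by MiSeq 2 × 250 sequencing and filtered on CDR length. These cells carried a synthetic nanobody library in Saccharomyces cerevisiae BJ5465 and were sorted by FACS into low and high (top ~1%) gates on anti-HA and streptavidin fluorescence. Polyreactivity is labelled according to the gate of origin.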

Row | Sequence | polyreactivity (PSR sort gate)
1 | QVQLVESGGGLVQAGGSLRLSCAASVRLFRGYAMGWYRQAPGKERELVAGITSGGSTKYADSVKGRFTISRDNAKNTVYLQMNSLKPEDTAVYDCAKGYLAYSYYARPYIRYYWGQGTQVTVSS | high polyreactivity
2 | QVQLVESGGGLVQAGGSLRLSCAASVRTFDSYTMGWYRPAPGKERELVAAIRSSGGRTYADSVKGRFTISRDNAKNTVYLQMNSLKPEDTAVYYCAAARSYWAKYYYWGQGTQVTVSS | high polyreactivity
3 | QVQLVESGGGLVQAGGSLRLSCAASVRTFGGYAMGLYRQAPGKERELVAAITSDTGTNYADSVKGRFTISRDNAKNTVYLEMNSLKPEDTAVYYCAADTPYSYYLNIYWKGMDYWGQGTQVTVSS | low polyreactivity
4 | QVQLVESGGGLVQAGGSLRLSCAASVRTFHYYAMGWYRQAPGKERELVAGITGGGSTYYADSVKGRFTISRDNAKNTVYLLMNSLKPEDTAVYYCADDRSYYGYGYCGQGTQVTVSS | low polyreactivity
5 | QVQLVESGGGLVQAGGSLRLSCAASVSIFGYYAMGWYRPAPGKEMELVAAISSGGNTNYADSVKGRFTISRDNAKNTVYLQMISLKQEDTAVYYCATRARYKRIRYDYWGQGTQVTVSS | high polyreactivity
6 | QVQLVESGGGLVQAGGSLRLSCAASVSIFIANVMGWYRQAPGKERELVAAITRTSSTYYADSVKGRFTISRDNAKNTVYLQMNSLKPEDTAVYYCAKLYGVVGRWYRSSYGYWGQGTQVTVSS | high polyreactivity
7 | QVQLVESGGGLVQAGGSLRLSCAASVSISLYYAMGWYRQAPGKERELVAAISTRGGSTYYADSVKGRFTISRDNAKNTVYLQMNSLKPEDTAVYYCAARTRLTADPRYGISSKMYYWGQGTQVTVSS | high polyreactivity
8 | QVQLVESGGGLVQAGGSLRLSCAASVSLSGYYAMGWYRTGPGKERELVASIRYTGALTYYADTVKGRFTISRDNAKNTVYLQMNSLKPEDTAGYYCAADVKRDRVWGGDYWGQGTQVTVSS | low polyreactivity
9 | QVQLVESGGGLVQAGGSLRLSCAASVSPFWLNAMGWYRPAPGKEREFVAAITVGGGSTYYADSVKGRFTISRDNAKNTDYLQMNSLKPEDTAVYYCAALYRFWYPGNSYDYWGQGTQVTVSS | high polyreactivity
10 | QVQLVESGGGLVQAGGSLRLSCAASVSTFAVYAMGWYRQAPGKERELVAAISSSGDRTFYADSVKGRFTISRDNAKNTVYLQMNSLKPEDTAVYYCNVPYKYRRAYDGGYDYWGQGTQVTVSS | high polyreactivity
11 | QVQLVESGGGLVQAGGSLRLSCAASVSTFFRYAKRWYRQAPGKERELVAAISKRGGSTSYADSVKGRFTISRDNAKNTVYLQMNSLKPEDTAVYYCATVYWLFARYDYWGQGTQVTVSS | high polyreactivity
12 | QVQLVESGGGLVQAGGSLRLSCAASVSTFQVYGMGWYREAPGKERELVAAISYSGGRTYYADSVKGRFTISRDNAKNTVYLQMNILKPEDTAVYYCNAVLAHDPRLDYWGQGTQVTVSS | high polyreactivity
13 | QVQLVESGGGLVQAGGSLRLSCAASVSTFQYNARGWYRQAPGKEMELVAAITSRGGSTYYADSVKGRFTISRDNAKNTVYLQMNSLKPEDTALYYCAALLSKSGRFDRAKVTAYGYWGQGTQVTVSS | low polyreactivity
14 | QVQLVESGGGLVQAGGSLRLSCAASVSTLSDNAMGWYRQAPGKERELVASISWSGGTYYADSVKGRFTISRDNAKNTVYLQMNSLKPEDTAVYYCAAYIYYNYSRQYWYDYWGQGTQVTVSS | low polyreactivity
15 | QVQLVESGGGLVQAGGSLRLSCAASWYTMGWYRQAPGKERELVAAITGGGSTNYADSVKGRFTISRDNAKNTVYLQMNSLKPEDTAVYYCAKTRVLLNSYSYNIIYDYWGQGTQVTVSS | low polyreactivity
16 | QVQLVESGGGLVQAGGSLRLSCAATGFIFAANAMGWYRQAPGKERELVAAINYRGSSTYYADSVKGRFTISRDNAKNTVYLQMNSLKPEDTAVYYCAARSGAQRGGGYWGQGTQVTVSS | high polyreactivity
17 | QVQLVESGGGLVQAGGSLRLSCAATGFIFERNAMGWYRQAPGKERELVAVISYSGGRTYYADSVKGRFTISRDNANNTVYLQMNSLKPEDTAVYYCAATIVKYGYHYDYWGQGTQVTVSS | high polyreactivity
18 | QVQLVESGGGLVQAGGSLRLSCAATGFTFFRYAMGWYRQARGKERELVAAITYSGSSTYYADSVKGRFTISRDNAKNTGYLQRNSLKPEDTAVYYCNAVQGFYSWVLYYYAYDYWGQGTQVTVSS | high polyreactivity
19 | QVQLVESGGGLVQAGGSLRLSCAATGFTFGSNVMGWYRQAPGKERELVATIRRGGSTNYADSVKGRFTISRDNAKNTVYLQLNSLKPEDTAVYYCATRYREWGQGTQVTVSS | high polyreactivity
20 | QVQLVESGGGLVQAGGSLRLSCAATGFTFRFYAIGWYRQAPGKERELVAAISSRGTTTYYADSVKGRFTISRDNAKNTVYLQMNSLKPEDTAVYYCNKEYTTYGYDLEYDYWGQGTQVTVSS | low polyreactivity
21 | QVQLVESGGGLVQAGGSLRLSCAATGFTFYKNAMGWYRQAAGKDRELVAAITRGGTTNYADSVMGRFTISRDNAKNTVYLQMNSLKEEDTAVYYCAKQGRYLTRYGYWGQGTQVTVSS | high polyreactivity
22 | QVQLVESGGGLVQAGGSLRLSCAATGFTFYVNAMGWYRQAPGKERELVAGITTSDGSTYYADSVKGRFTISRDNAKNTVYLQMNSLKPEDTAVYYCAAAITWYQLYQRSGGDYWGQGTQVTVSS | low polyreactivity

Row | Sequence | polyreactivity (PSR sort gate)
23 | QVQLVESGGGLVQAGGSLRLSCAATGIIFHRYVMGWYRQAPGKERELVAVITQRGGSTYYADSVKGRFTISRDNAKNTVYLQMNSLKQEDTAVYYCAARSQYRDRTGQYGYWGQGSQVTVSS | high polyreactivity
24 | QVQLVESGGGLVQAGGSLRLSCAATGIIFRDYGKGWYRHAPGKQREFVATITYSGGGTYYADSVKGRFTISRDNAKNTVYLQMNSLKPEDTAVYYCAAYPFYYDLAYDYWGQGTQVTVSS | low polyreactivity
25 | QVQLVESGGGLVQAGGSLRLSCAATGIIIDSNAMGWYRQAPGKERELVAAITSGGSTKYADSVKGRFTISRDNAKNTVYLQMNSLKPEDTAVYYCAAGGSYYRDDYWGQGTQVTVSS | low polyreactivity
26 | QVQLVESGGGLVQAGGSLRLSCAATGLIFAYNTMGWYRQAPGKERELVAGITSSGSTYYADSVKGRFTISRDNAKNTVYVQMNSLKPEDTAVYYCAAEWDDGRSWYWYYLVGFEYWGQGTQVTVSS | high polyreactivity
27 | QVQLVESGGGLVQAGGSLRLSCAATGLTFKENVMGWYRQAPGKERELVAAISTGASTYYADSVNGRFTISRDNAKNTVYLQMNSLKPEDTAVYYCAKRVTPWYGYWGQGTQVTVSS | high polyreactivity
28 | QVQLVESGGGLVQAGGSLRLSCAATGRIFPYYAMGWYRQAPGKERALVATISSGGRTNYADSVKGRFTISRDNAKNTVYLQMNSLNPEDTAVYYCAADYRKSRVFYGLYYWGQGTQVTVSS | high polyreactivity
29 | QVQLVESGGGLVQAGGSLRLSCAATGRIFRTTAMGWYRQAPGTVRELVAAITFSGGGTYYADSVKGRFTISRDHAKNTGYLQMNSLKPEETAFYYCYADDSYDLSCFEDDYWGQGTQVTVSS | low polyreactivity
30 | QVQLVESGGGLVQAGGSLRLSCAATGRIFSLYAMGWYRQAPGKERELVASITRSGVRTYYADSVKGRFTISRDNAKNTVYLQMNSLKPEDTAVYYCAAPYLYSQGTYYRSSGMDYWGQGTQVTVSS | low polyreactivity
31 | QVQLVESGGGLVQAGGSLRLSCAATGRIFTINAMGWYRQAPGKERELVAGITKSGGITYYADSVKGRFTISRDNAKNTVYLQMNSLKPEDTAVYYCAAPFNRWRARTGFDYWGQGTQVTVSS | high polyreactivity
32 | QVQLVESGGGLVQAGGSLRLSCAATGRIISFYVMGWYRQAPGKERELVAAISLSGGSTYYADSVKGRFTNSRDNAKNTVFLQMNCLKPEDTAVYYCYAVLYARQRERWARYDYWGQGTQVTVSS | high polyreactivity
33 | QVQLVESGGGLVQAGGSLRLSCAATGRISFRILWDGIDRRLGKKGSWLPLLTNTGSTNYADSVKARFTISRDNAKNTVYLQMNSLKPEDTAVYYCNADPTGGSSYPAYFEYDYWGQGTQGTVSS | low polyreactivity
34 | QVQLVESGGGLVQAGGSLRLSCAATGRTFPAYAMGWYRQAPGKERELVAAITINGGSTYYADSVKGRFTISRDNAKNSVYLQMNSLKPEDTAVYYCAAYYASPRHGFWGQGTQVTVSS | low polyreactivity
35 | QVQLVESGGGLVQAGGSLRLSCAATGRTFSVYTMGWYRQAPGKERELVASISRSGGRTYYADSVKGRFTISRDNAKNTVYLQMNSLKPEDTAVYYCAARWYSASALKYYYWGQGTQVTVSS | high polyreactivity
36 | QVQLVESGGGLVQAGGSLRLSCAATGRTFTGNVMGWYRQAPGKERELVAAISRSGTSTYYADSVKGRFTISRDNAKNTVYLQMNSLKPEDTAVYYCAARRTAGYRSGEYDYWGQGTQVTVSS | high polyreactivity
37 | QVQLVESGGGLVQAGGSLRLSCAATGSIFKWYAMGWYRQEPGKERELVSAISKSGGSTYYADSVKGRFTISRDNAKNTVYLQINSLKPEDTAVYYCNAVYIGSRRRYEYDYWGEGTQVTVSS | high polyreactivity
38 | QVQLVESGGGLVQAGGSLRLSCAATGSIFNKYAMGWYRQAPGTEREFVAAITQGGGRTYYADSVKGRFTISRDNAKNTVYLQMNSLKPEDTAVYYCAKPAYHSPDYDYWGQGTQVTVSS | high polyreactivity
39 | QVQLVESGGGLVQAGGSLRLSCAATGSIFQGNVMGWYRPAPGKERELVAGISSSGGRTYYADSVKGRFTISRDNAKNTVYLQMNSLIPEDTAVYYCNAVPSNRQLDYDYWGQGTLVTVSS | high polyreactivity
40 | QVQLVESGGGLVQAGGSLRLSCAATGSIFSLYAMGWYRQSPGKERELVADITYSGGNTYYADSVKGRFTISRDNAKNTVYLHMNSLKPEDTAVYYCNAYYFDYWYWYDYWGQGTQVTVSS | high polyreactivity
41 | QVQLVESGGGLVQAGGSLRLSCAATGSIFSRYAMGWYRQAPGKERELVAAISWRGGGTYYADSVKGRFTISRDNAKNTVYLQMNSLKPVDTAVYYCAADDTPDDSDYWGQGTQVTVSS | low polyreactivity
42 | QVQLVESGGGLVQAGGSLRLSCAATGSIIPFYAMGWYRQATGKEREFVAAISRTGGNTYYADSVKGLLTISRDNAKNTVYLQMNSLKPEDTAVYFCATKRKWTYLSFDYWGQGTQVTVSS | low polyreactivity
43 | QVQLVESGGGLVQAGGSLRLSCAATGSTFDNYAMGWYRQAHGKERELVADITWSGGSTYYADSVKGRFTISRDNAKNTVYLQMNSLKPEDTAVYYCNTAGYYTKYDYWGQGTQVTVSS | low polyreactivity
